T1: hBCMA (human BCMA) (Homo sapiens, UniProt Q02223)
T1 sequence (Q02223 1-184): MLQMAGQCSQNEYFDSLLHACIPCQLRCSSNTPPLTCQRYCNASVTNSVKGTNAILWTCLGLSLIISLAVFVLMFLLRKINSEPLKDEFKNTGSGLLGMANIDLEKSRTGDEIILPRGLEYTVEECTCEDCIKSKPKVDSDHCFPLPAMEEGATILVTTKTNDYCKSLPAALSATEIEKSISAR


Experiments:
hBCMA (human BCMA) = target: T1, hBCMA (human BCMA); test: Kinetics and affinity of hBCMA/human IgG interactions by SPR (Bio-Rad Proteon XPR36); format: binding; conditions: human BCMA, 37° C.
How it was run: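 Captured here: binding of soluble BCMA to covalently coupled anti-BCMA IgGs, measured at 37° C. or 25° C. with a five-point single-cycle series (top 50 nM, fivefold dilution) and extended 2 h off-rate phase, analyzed by a 1:1 mass-transport-corrected model.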

Cyno BCMA = test: Kinetics and affinity of cyno BCMA/human IgG interactions by SPR (Bio-Rad Proteon XPR36); format: binding, cynomolgus; conditions: 37° C.

| Molecule | ka Human (hBCMA (human BCMA)) | kd Human (hBCMA (human BCMA)) | ka Cyno (Cyno BCMA) | kd Cyno (Cyno BCMA) | Kd (hBCMA (human BCMA)) | Kd (Cyno BCMA) |
| --- | --- | --- | --- | --- | --- | --- |
| A02_Rd4_6 nM_C10: anti-BCMA antibody (antibody, V domains shown) VH: EVQLLESGGGLVQPGGSLRLSCAASGFTFSSYAMNWVRQAPGKGLEWVSAISDSGGSCWYADSVKGRFTISRDNSKNTLYLQMNSLRAEDTAVYYCARYWPMTPWGQGTLVTVSS VL: EIVLTQSPGTLSLSPGERATLSCRASQSVEMSYLAWYQQKPGQAPRLLMYDASIRATGIPDRFSGSGSGTDFTLTISRLEPEDFAVYYCQQYAHWPLTFGQGTKVEIK | 4.51e+06 M⁻¹ s⁻¹ | 0.000315 s⁻¹ | 1.9e+06 M⁻¹ s⁻¹ | 0.000898 s⁻¹ |  |  |
| A02_Rd4_6 nM_C05: anti-BCMA antibody (antibody, V domains shown) VH: EVQLLESGGGLVQPGGSLRLSCAASGFTFSSYAMNWVRQAPGKGLEWVSAIFASGGSTYYADSVKGRFTISRDNSKNTLYLQMNSLRAEDTAVYYCARYWPMTPWGQGTLVTVSS VL: EIVLTQSPGTLSLSPGERATLSCRASQSVSSSYLAWYQQKPGQAPRLLMYDASIRATGIPDRFSGSGSGTDFTLTISRLEPEDFAVYYCQQYQRWPLTFGQGTKVEIK | 3.1e+06 M⁻¹ s⁻¹ | 0.000308 s⁻¹ | 1.36e+06 M⁻¹ s⁻¹ | 0.00129 s⁻¹ |  |  |
| A02_Rd4_0.6 nM_C10: anti-BCMA antibody (antibody, V domains shown) VH: EVQLLESGGGLVQPGGSLRLSCAASGFTFSSYAMNWVRQAPGKGLEWVSAISGWGGSLPYADSVKGRFTISRDNSKNTLYLQMNSLRAEDTAVYYCARYWPMDSWGQGTLVTVSS VL: EIVLTQSPGTLSLSPGERATLSCRASQSVSAQYLAWYQQKPGQAPRLLMYDASIRATGIPDRFSGSGSGTDFTLTISRLEPEDFAVYYCQQYQRWPLTFGQGTKVEIK | 2.3e+06 M⁻¹ s⁻¹ | 0.000296 s⁻¹ | 883000 M⁻¹ s⁻¹ | 0.00163 s⁻¹ |  |  |
| A02_Rd4_6 nM_C04: anti-BCMA antibody (antibody, V domains shown) VH: EVQLLESGGGLVQPGGSLRLSCAASGFTFSSYAMNWVRQAPGKGLEWVSAIMSSGGPLYYADSVKGRFTISRDNSKNTLYLQMNSLRAEDTAVYYCARYWPMALWGQGTLVTVSS VL: EIVLTQSPGTLSLSPGERATLSCRASQSVSALYLAWYQQKPGQAPRLLMYDASIRATGIPDRFSGSGSGTDFTLTISRLEPEDFAVYYCQQYQVWPLTFGQGTKVEIK | 4.47e+06 M⁻¹ s⁻¹ | 0.000603 s⁻¹ | 2.18e+06 M⁻¹ s⁻¹ | 0.000831 s⁻¹ | 0.135 nM | 0.381 nM |
| A02_Rd4_0.6 nM_C26: anti-BCMA antibody (antibody, V domains shown) VH: EVQLLESGGGLVQPGGSLRLSCAASGFTFSSYAMNWVRQAPGKGLEWVSAILMSGGSTYYADSVKGRFTISRDNSKNTLYLQMNSLRAEDTAVYYCARYWPMSLWGQGTLVTVSS VL: EIVLTQSPGTLSLSPGERATLSCGPSQSVSSSYLAWYQQKPGQAPRLLMYDASIRATGIPDRFSGSGSGTDFTLTISRLEPEDFAVYYCQQYQSWPLTFGQGTKVEIK | 7.26e+06 M⁻¹ s⁻¹ | 0.000443 s⁻¹ | 2.71e+06 M⁻¹ s⁻¹ | 0.00256 s⁻¹ |  |  |
| A02_Rd4_0.6 nM_C13: anti-BCMA antibody (antibody, V domains shown) VH: EVQLLESGGGLVQPGGSLRLSCAASGFTFSSYAMNWVRQAPGKGLEWVSAISDSGGYRYYADSVKGRFTISRDNSKNTLYLQMNSLRAEDTAVYYCARYWPMSLWGQGTLVTVSS VL: EIVLTQSPGTLSLSPGERATLSCRASQSVSSSYWAWYQQKPGQAPRLLMYDASIRATGIPDRFSGSGSGTDFTLTISRLEPEDFAVYYCQQYESWPLTFGQGTKVEIK | 8.53e+06 M⁻¹ s⁻¹ | 0.000566 s⁻¹ | 2.29e+06 M⁻¹ s⁻¹ | 0.00128 s⁻¹ |  |  |

— US11814435B2, “Therapeutic antibodies and their uses” (PFIZER INC., priority 2015, dated 2023)
